# Measurements taken from patent US6759384 (AVENTIS PHARMACEUTICALS, dated 2004).
# Non-standard residues stand in square brackets, D forms with d. No end group written: not given here. *: point of attachment. Ala(1-Me-3-pyridinium) = C[n+]1cccc(C[C@H](N)C(=O)O)c1; Phe(4-guanidino) = N=C(N)Nc1ccc(C[C@H](N)C(=O)O)cc1; Phe(4-CN) = N#Cc1ccc(C[C@H](N)C(=O)O)cc1; Phe(4-NH2) = Nc1ccc(C[C@H](N)C(=O)O)cc1; dPhe(4-F) = N[C@H](Cc1ccc(F)cc1)C(=O)O; 1Nal = N[C@@H](Cc1cccc2ccccc12)C(=O)O; 2Nal = N[C@@H](Cc1ccc2ccccc2c1)C(=O)O; (CH3CH2CH2(CH3))G = N-alkylglycine; Gly(N-cHex) = O=C(O)CNC1CCCCC1; Chg = N[C@H](C(=O)O)C1CCCCC1; Nle = CCCC[C@H](N)C(=O)O; Nphe = O=C(O)CNCc1ccccc1; Dab = NCC[C@H](N)C(=O)O; Tfa = O=C(C(F)(F)F)*
# Biological target: human factor Xa (Enzyme Research Laboratories, Inc.) (human, UniProt P00742 41-179; P00742 235-488, limits assumed)
# Sequence (P00742 41-179 limits assumed, chain 1 of 2): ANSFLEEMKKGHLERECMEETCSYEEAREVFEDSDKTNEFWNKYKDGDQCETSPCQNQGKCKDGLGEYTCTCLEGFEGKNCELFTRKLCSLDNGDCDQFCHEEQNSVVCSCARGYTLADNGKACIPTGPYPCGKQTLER
# Sequence (P00742 235-488 limits assumed, chain 2 of 2): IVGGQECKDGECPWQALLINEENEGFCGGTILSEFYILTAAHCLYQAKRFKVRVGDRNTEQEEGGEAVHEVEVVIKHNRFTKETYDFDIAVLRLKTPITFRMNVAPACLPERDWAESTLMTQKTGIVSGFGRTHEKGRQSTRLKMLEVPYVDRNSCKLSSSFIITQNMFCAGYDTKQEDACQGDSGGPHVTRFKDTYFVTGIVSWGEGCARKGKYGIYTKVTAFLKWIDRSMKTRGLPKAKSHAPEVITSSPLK
# Assay: chromogenic FXa inhibition
# Method: TBS-P buffer (50 mM Tris-Cl, pH 7.8, 200 mM NaCl, 0.05% (w/v) PEG-8000, 0.02% (w/v) NaN_3) was used for this assay. The IC$50$ was determined by combining in appropriate wells of a Costar half-area microtiter plate 25 μl human factor Xa (Enzyme Research Laboratories, Inc.; South Bend Ind.) in TBS-P; 40 μl 10% (v/v) DMSO in TBS-P (uninhibited control) or various concentrations of a peptide to be tested diluted in 10% (v/v) DMSO in TBS-P; and substrate S-2765 (Nα-benzyloxycarbonyl-D-Arg-Gly-L-Arg-p-nitroanilide; Kabi Pharmacia, Inc.; Franklin Ohio) in TBS-P.
# The assays were performed by pre-incubating the peptide inhibitor plus enzyme for 10 min, then the assay was initiated by adding substrate to obtain a final volume of 100 μl. The initial velocity of chromogenic substrate hydrolysis was measured by the change in absorbance at 405 nm using a Bio-tek Instruments kinetic plate reader (Ceres UV900HDi) at 25° C. during the linear portion of the time course (usually 1–5 min after addition of substrate). The concentration of inhibitor that caused a 50% decrease in the rate of substrate hydrolysis was predicted by linear regression after plotting the relative rates of hydrolysis (compared to the uninhibited control) versus the log of the peptide concentration. The enzyme concentration was 0.5 nM and substrate concentration was 140 μM.
row,Binder,Ki [µM]
1,Ac-[dPhe(4-F)]IRLP-NH2 (SMILES CC[C@H](C)[C@H](NC(=O)[C@@H](Cc1ccc(F)cc1)NC(C)=O)C(=O)N[C@@H](CCCNC(=N)N)C(=O)N[C@@H](CC(C)C)C(=O)N1CCC[C@H]1C(N)=O) [Ac-f(pF)-I-R-L-P-NH2],< 100
2,Ac-[dY]IRLA [Ac-y-I-R-L-A],< 100
3,{N‑morpholinyl‑CO}-FIRLP-NH2 [N-morpholinyl-CO-F-I-R-L-P-NH2],< 100
4,YIRGA-NH2 [Y-I-R-G-A-NH2],< 100
5,YIRIY-NH2 [Y-I-R-I-Y-NH2],< 100
6,YIRLA-NH2 [Y-I-R-L-A-NH2],< 100
7,YIRL[dA]-NH2 (N-terminus assumed; SMILES CC[C@H](C)[C@H](NC(=O)[C@@H](N)Cc1ccc(O)cc1)C(=O)N[C@@H](CCCNC(=N)N)C(=O)N[C@@H](CC(C)C)C(=O)N[C@H](C)C(N)=O) [Y-I-R-L-a-NH2],< 100
8,[dPhe(4-F)]IRLP-NH2 (N-terminus assumed; SMILES CC[C@H](C)[C@H](NC(=O)[C@H](N)Cc1ccc(F)cc1)C(=O)N[C@@H](CCCNC(=N)N)C(=O)N[C@@H](CC(C)C)C(=O)N1CCC[C@H]1C(N)=O) [f(pF)-I-R-L-P-NH2],< 100
9,[dF]IRFP-NH2 (N-terminus assumed; SMILES CC[C@H](C)[C@H](NC(=O)[C@H](N)Cc1ccccc1)C(=O)N[C@@H](CCCNC(=N)N)C(=O)N[C@@H](Cc1ccccc1)C(=O)N1CCC[C@H]1C(N)=O) [f-I-R-F-P-NH2],< 100
10,[dF]IRIP-NH2 (N-terminus assumed; SMILES CC[C@H](C)[C@H](NC(=O)[C@H](N)Cc1ccccc1)C(=O)N[C@@H](CCCNC(=N)N)C(=O)N[C@H](C(=O)N1CCC[C@H]1C(N)=O)[C@@H](C)CC) [f-I-R-I-P-NH2],< 100
11,[dY]IRGP-NH2 (also: R3-G4 (COCH2) bond replaces peptide bond) [y-I-R(COCH2)-G-P-NH2],< 100
12,[dY]IRLA-NH2 (N-terminus assumed; SMILES CC[C@H](C)[C@H](NC(=O)[C@H](N)Cc1ccc(O)cc1)C(=O)N[C@@H](CCCNC(=N)N)C(=O)N[C@@H](CC(C)C)C(=O)N[C@@H](C)C(N)=O) [y-I-R-L-A-NH2],< 100
13,Ac-[Phe(4-CN)]IRLP-NH2 (SMILES CC[C@H](C)[C@H](NC(=O)[C@H](Cc1ccc(C#N)cc1)NC(C)=O)C(=O)N[C@@H](CCCNC(=N)N)C(=O)N[C@@H](CC(C)C)C(=O)N1CCC[C@H]1C(N)=O) [Ac-F(pCN)-I-R-L-P-NH2],< 100
14,Ac-[Phe(4-NH2)]IRLP-NH2 (SMILES CC[C@H](C)[C@H](NC(=O)[C@H](Cc1ccc(N)cc1)NC(C)=O)C(=O)N[C@@H](CCCNC(=N)N)C(=O)N[C@@H](CC(C)C)C(=O)N1CCC[C@H]1C(N)=O) [Ac-F(pNH2)-I-R-L-P-NH2],< 100
15,Ac-[Phe(4-NH2)][Chg]R[Nphe]G-OH (SMILES CC(=O)N[C@@H](Cc1ccc(N)cc1)C(=O)N[C@H](C(=O)N[C@@H](CCCNC(=N)N)C(=O)N(CC(=O)NCC(=O)O)Cc1ccccc1)C1CCCCC1) [Ac-F(pNH2)-Chg-R-(Bzl)G-G-OH],< 100
16,Ac-[Phe(4-NH2)][Chg]R[Gly(N-cHex)]G-OH (SMILES CC(=O)N[C@@H](Cc1ccc(N)cc1)C(=O)N[C@H](C(=O)N[C@@H](CCCNC(=N)N)C(=O)N(CC(=O)NCC(=O)O)C1CCCCC1)C1CCCCC1) [Ac-F(pNH2)-Chg-R-(Chx)G-G-OH],< 100
17,Ac-[Phe(4-NH2)][Chg]R[(CH3CH2CH2(CH3))G]G-OH (name runs over rows r100 and r101) [Ac-F(pNH2)-Chg-R-(CH3CH2CH2(CH3))G-G-OH],< 100
18,Ac-GGYIRG-NH2 [Ac-G-G-Y-I-R-G-NH2],< 100
19,Ac-GY[Nle]RL-NH2 (SMILES CCCC[C@H](NC(=O)[C@H](Cc1ccc(O)cc1)NC(=O)CNC(C)=O)C(=O)N[C@@H](CCCNC(=N)N)C(=O)N[C@@H](CC(C)C)C(N)=O) [Ac-G-Y-Nle-R-L-NH2],< 100
20,Ac-G[dY][Nle]RL-NH2 (SMILES CCCC[C@H](NC(=O)[C@@H](Cc1ccc(O)cc1)NC(=O)CNC(C)=O)C(=O)N[C@@H](CCCNC(=N)N)C(=O)N[C@@H](CC(C)C)C(N)=O) [Ac-G-y-Nle-R-L-NH2],< 100
21,Ac-[1Nal]IRLP-NH2 [Ac-Nal(1)-I-R-L-P-NH2],< 100
22,Ac-[2Nal]IRLP-NH2 [Ac-Nal(2)-I-R-L-P-NH2],< 100

row,Binder,Ki [µM]
1,Ac-[Phe(4-guanidino)]IRLP-NH2 (SMILES CC[C@H](C)[C@H](NC(=O)[C@H](Cc1ccc(NC(=N)N)cc1)NC(C)=O)C(=O)N[C@@H](CCCNC(=N)N)C(=O)N[C@@H](CC(C)C)C(=O)N1CCC[C@H]1C(N)=O) [Ac-Phe-(pGua)-I-R-L-P-NH2],< 100
2,Ac-SYIRLP-NH2 [Ac-S-Y-I-R-L-P-NH2],< 100
3,GYIRLP-NH2 [G-Y-I-R-L-P-NH2],< 100
4,Ac-WLRLA-NH2 [Ac-W-L-R-L-A-NH2],< 100
5,WLRVA-NH2 [W-L-R-V-A-NH2],< 100
6,[dW]LRVA-NH2 (N-terminus assumed; SMILES CC(C)C[C@H](NC(=O)[C@H](N)Cc1c[nH]c2ccccc12)C(=O)N[C@@H](CCCNC(=N)N)C(=O)N[C@H](C(=O)N[C@@H](C)C(N)=O)C(C)C) [w-L-R-V-A-NH2],< 100
7,XIRLP (N-term Ac; Y1=Y(Me) O-methyl tyrosine; C-term NH2) [Ac-Y(Me)-I-R-L-P-NH2],< 100
8,Ac-YIRLP-NH2 (also: pseudo peptide bond ψ(CH2N(Ac)) between Y1 and I2) [Ac-Y-{ψ(CH2N(Ac))}-I-R-L-P-NH2],< 100
9,Ac-YIRLP-NH2 (also: reduced pseudo peptide bond ψ(CH2NH) between Y1 and I2) [Ac-Y-{ψ(CH2NH)}-I-R-L-P-NH2],< 100
10,Ac-YI[Ala(1-Me-3-pyridinium)]LP-NH2 (SMILES CC[C@H](C)[C@H](NC(=O)[C@H](Cc1ccc(O)cc1)NC(C)=O)C(=O)N[C@@H](Cc1ccc[n+](C)c1)C(=O)N[C@@H](CC(C)C)C(=O)N1CCC[C@H]1C(N)=O) [Ac-Y-I-PalMe(3)-L-P-NH2],< 100
11,Ac-YIRLP-NH2 (also: reduced pseudo peptide bond ψ(CH2NH) between I2 and R3) [Ac-Y-I-{ψ(CH2NH)}-R-L-P-NH2],< 100
12,Ac-YIRL [Ac-Y-I-R-L],< 100
13,Ac-YIRI [Ac-Y-I-R-I],< 100
14,Ac-YNRL-NH2 [Ac-Y-N-R-L-NH2],< 100
15,FIRL-NH2 (probably F-I-R-L-NH2) [F-I-R-L-N-H2],< 100
16,Tfa-[N(iBu)Y]IRG-NH2 [Tfa-(iBu)Y-I-R-G-NH2],< 100
17,YIRI-NH2 [Y-I-R-I-NH2],< 100
18,Ac-YIRLAAFT-NH2 [Ac-Y-I-R-L-A-A-F-T-NH2],< 100
19,YIRLP (N-term Ac; D-Tyr at 1; C-term NH2) [Ac-y-I-R-L-P-NH2],< 100
20,"Ac-Y-I-R-L-P-Dab(Ac-Y-I-R-L-P)-OH (also: branched: chain 2 attached to the Dab6 side-chain N, branched peptide) peptide: Ac-YIRLP[Dab]-OH Ac-YIRLP",< 100
21,"Ac-YKRLE-NH2 (also: cyclisation unknown (underlining lost), may be cyclic; underlining lost) [Ac-Y-K-R-L-E-NH2]",< 100
